The text below walks through data of US20030113711A1, “Protein kinase peptide substrate determination using peptide libraries” (priority 2001, published 2003).

Assay in all cases: Kinetic evaluation of peptide substrates, varying peptide at fixed ATP (phosphocellulose filter, [γ-33P]ATP)
Holding throughout (type): biochemical
Settings in all cases: other: ErbB-2; Km for peptide; ATP concentration >10 × Km (200 μM ATP); pH 7.5; 23.0 °C

In series [1] the test system is CC[C@H](C)[C@H](NC(=O)[C@H](CCC(=O)O)NC(=O)[C@H](CCC(=O)O)NC(=O)[C@H](Cc1c[nH]cn1)NC(=O)[C@H](C)NC(=O)[C@H](CCCNC(=N)N)NC(=O)CCCCCNC(=O)CCCC[C@@H]1SC[C@@H]2NC(=O)N[C@@H]21)C(=O)N[C@@H](Cc1ccc(O)cc1)C(=O)N[C@@H](Cc1c[nH]cn1)C(=O)N[C@@H](Cc1ccccc1)C(=O)N[C@@H](Cc1ccccc1)C(=O)N[C@@H](Cc1ccccc1)C(=O)N[C@@H](C)C(=O)N[C@@H](CCCCN)C(=O)N[C@@H](CCCCN)C(=O)N[C@@H](CCCCN)C(N)=O. The protocol: (§1) Peptide sequences identified as preferred substrates for ErbB-2 using the methods described in Laboratory Example 3 were synthesized. The kcat and Km values for each peptide were determined as follows, using the kinases ErbB-2, ErbB-4, and EGFR.
(§2) Reactions were performed in 96-well polystyrene round bottom plates in a final volume of 45 μL. Reaction mixtures contained 50 mM MOPS, pH 7.5, 10 mM MnCl2, 1 mM dithiothreitol (DTT), 200 μM ATP, 1.0 μCi [γ-^33P] ATP, and varying concentrations of peptide. The reaction was initiated by adding the purified kinase of interest and halted after 10 minutes at 23° C. (room temperature) by adding 45 μL of 0.5% phosphoric acid in water. A 75 μL aliquot of the halted reaction mixture was then transferred to MAPH phosphocellulose filter plates (Millipore, Bedford, Mass.). The plates were filtered three times with 0.2 mL of 0.5 percent phosphoric acid. Scintillation cocktail (50 μL) was added to each well, and the plate was analyzed by counting in a Packard TOPCOUNT® scintillation counter (Packard Instrument Co., Meriden, Conn.). In these assays, the concentration of ATP was greater than ten-fold higher than the Km for ATP, which permitted the kinetic data to be treated as a pseudo-first-order reaction with varying peptide concentration. All experiments were performed in quadruplicate and the average value for each data point was analyzed. The Km and Vmax values were calculated by fitting the data to the Henri-Michaelis-Menten equation by non-linear regression using SIGMAPLOT® (SPSS Science, Chicago, Ill.). kcat values were calculated using the Vmax value, and are based on the protein concentration of the enzyme preparation and an estimate of purity determined from an evaluation of a Coomassie Blue stained SDS-polyacrylamide gel.

Series [2] has as its system CC[C@H](C)[C@H](NC(=O)[C@H](CCC(=O)O)NC(=O)[C@H](Cc1c[nH]cn1)NC(=O)[C@H](Cc1c[nH]cn1)NC(=O)[C@H](C)NC(=O)[C@H](CCCNC(=N)N)NC(=O)CCCCCNC(=O)CCCC[C@@H]1SC[C@@H]2NC(=O)N[C@@H]21)C(=O)N[C@@H](Cc1ccc(O)cc1)C(=O)N[C@@H](Cc1c[nH]cn1)C(=O)N[C@@H](Cc1ccccc1)C(=O)N[C@@H](Cc1ccccc1)C(=O)N[C@@H](Cc1ccccc1)C(=O)N[C@@H](C)C(=O)N[C@@H](CCCCN)C(=O)N[C@@H](CCCCN)C(=O)N[C@@H](CCCCN)C(N)=O. The protocol: as §1, §2

In series [3] the test system is C[C@H](NC(=O)[C@H](CCCNC(=N)N)NC(=O)CCCCCNC(=O)CCCC[C@@H]1SC[C@@H]2NC(=O)N[C@@H]21)C(=O)N[C@@H](Cc1c[nH]cn1)C(=O)N[C@@H](Cc1c[nH]cn1)C(=O)N[C@@H](CCC(=O)O)C(=O)N[C@@H](CCC(=O)O)C(=O)N[C@@H](Cc1ccc(O)cc1)C(=O)N[C@@H](Cc1c[nH]cn1)C(=O)N[C@@H](Cc1ccccc1)C(=O)N[C@@H](Cc1ccccc1)C(=O)N[C@@H](Cc1ccccc1)C(=O)N[C@@H](C)C(=O)N[C@@H](CCCCN)C(=O)N[C@@H](CCCCN)C(=O)N[C@@H](CCCCN)C(N)=O. The method, then:
as §1, §2

Series [4] relates to CC[C@H](C)[C@H](NC(=O)[C@H](Cc1ccccc1)NC(=O)[C@H](Cc1c[nH]cn1)NC(=O)[C@H](Cc1ccc(O)cc1)NC(=O)[C@H](CCC(=O)O)NC(=O)[C@H](CCC(=O)O)NC(=O)[C@H](CCC(=O)O)NC(=O)[C@H](Cc1c[nH]cn1)NC(=O)[C@H](C)NC(=O)[C@H](CCCNC(=N)N)NC(=O)CCCCCNC(=O)CCCC[C@@H]1SC[C@@H]2NC(=O)N[C@@H]21)C(=O)N[C@@H](Cc1ccccc1)C(=O)N[C@@H](C)C(=O)N[C@@H](CCCCN)C(=O)N[C@@H](CCCCN)C(=O)N[C@@H](CCCCN)C(N)=O. The method, then:
as §1, §2

Series [5] relates to C[C@H](NC(=O)[C@H](CCCNC(=N)N)NC(=O)CCCCCNC(=O)CCCC[C@@H]1SC[C@@H]2NC(=O)N[C@@H]21)C(=O)N[C@@H](Cc1c[nH]cn1)C(=O)N[C@@H](CCC(=O)O)C(=O)N[C@@H](CCC(=O)O)C(=O)N[C@@H](CCC(=O)O)C(=O)N[C@@H](Cc1ccc(O)cc1)C(=O)N[C@@H](Cc1c[nH]cn1)C(=O)N[C@@H](Cc1ccccc1)C(=O)N[C@@H](Cc1ccccc1)C(=O)N[C@@H](Cc1ccccc1)C(=O)N[C@@H](C)C(=O)N[C@@H](CCCCN)C(=O)N[C@@H](CCCCN)C(=O)N[C@@H](CCCCN)C(N)=O. The protocol:
as §1, §2

As for ErbB-2 (Homo sapiens), the Km in series [1] stood at 11.4 µM; in series [2], 66.6 µM; in series [3], 14.7 µM; in series [4], 8.6 µM; in series [5], 6.8 µM. Further, the kcat in series [1] came to 0.0967 s⁻¹; in series [2] it was 0.173 s⁻¹; in series [3], 0.09 s⁻¹; in series [4], 0.0333 s⁻¹; in series [5], 0.0127 s⁻¹. Besides, the kcat/Km in series [1] turned out to be 8500 M⁻¹ s⁻¹; in series [2] it was 2670 M⁻¹ s⁻¹; in series [3], 6170 M⁻¹ s⁻¹; in series [4], 3830 M⁻¹ s⁻¹; in series [5], 1830 M⁻¹ s⁻¹.

As a reminder, the Km is the substrate concentration at which the rate is half of its maximum. One may read the kcat as the maximal rate divided by the concentration of active sites. In general, kcat/Km refers to the turnover number divided by the Michaelis constant.
